# Measurements: patent US20030144339A1, “Indole derivatives as mcp-1 receptor antagonists” (priority 2000, published 2003)
# Assays:
# [1] = target: T1, MCP-1 receptor B (CCR2B) (Homo sapiens, UniProt P41597); experiment: hMCP-1 receptor binding assay (125I-MCP-1, CHO-CCR2B cell membranes)
# T1 construct: expressed in transfected cells; membrane fragments
# T1 sequence (P41597 1-360 isoform P41597-2): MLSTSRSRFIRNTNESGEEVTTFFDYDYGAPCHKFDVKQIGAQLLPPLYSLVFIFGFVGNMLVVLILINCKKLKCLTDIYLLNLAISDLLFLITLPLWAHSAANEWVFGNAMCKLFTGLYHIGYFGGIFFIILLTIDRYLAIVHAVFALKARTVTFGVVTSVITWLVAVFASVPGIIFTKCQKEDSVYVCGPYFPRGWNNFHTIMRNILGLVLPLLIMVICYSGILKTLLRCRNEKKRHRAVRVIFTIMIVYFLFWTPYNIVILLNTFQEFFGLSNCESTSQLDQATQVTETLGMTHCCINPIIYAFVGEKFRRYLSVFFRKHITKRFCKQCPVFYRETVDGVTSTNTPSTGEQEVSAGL
# Source text: The MCP-1 receptor B (CCR2B) cDNA was cloned by PCR from ThP-1 cell RNA using suitable oligonucleotide primers based on the published MCP-1 receptor sequences (Charo et al., 1994, Proc. Natl. Acad. Sci. USA, 91, 2752). The resulting PCR products were cloned into vector PCR-II™ (In Vitrogen, San Diego, Calif.). Error free CCR2B cDNA was subcloned as a Hind III-Not I fragment into the eukaryotic expression vector pCDNA3 (In Vitrogen) to generate pCDNA3/CC-CKR2A and pCDNA3/CCR2B respectively.
# Linearised pCDNA3/CCR2B DNA was transfected into CHO-K1 cells by calcium phosphate precipitation (Wigler et al., 1979, Cell, 16, 777). Transfected cells were selected by the addition of Geneticin Sulphate (G418, Gibeo BRL) at 1 mg/ml, 24 hours after the cells had been transfected. Preparation of RNA and Northern blotting were carried out as described previously (Needham et al., 1995, Prot. Express. Purific., 6, 134). CHO-K1 clone 7 (CHO-CCR2B) was identified as the highest MCP-1 receptor B expresser.
# CHO-CCR2B cells were grown in DMEM supplemented with 10% foetal calf serum, 2 mM glutamine, 1× Non-Essential Amino Acids, 1× Hypoxantiine and Thymidine Supplement and Penicillin-Streptomycin (at 50 μg streptomycin/ml, Gibco BRL). Membrane fragments were prepared using cell lysis/differential centrifuigation methods as described previously (Siciliano et al., 1990, J. Biol. Chem., 265, 19658). […]
# [2] = tested on: THP-1 cells; experiment: MCP-1 mediated calcium flux in THP-1 cells; type: cell-based, human; settings: FURA-2, stimulation with hMCP-1, read-out: EC50 of rise in [Ca2+]i
# Protocol: The human monocytic cell line TIP-1 was grown in a synthetic cell culture medium RPM 1640 supplemented with 10% foetal calf serum, 6 mM glutamine and Penicillin-Streptomycin (at 50 μg streptomycin/ml, Gibeo BRL). THP-1 cells were washed in HBSS (lacking Ca^2+ and Mg^2+)+1 mg/ml BSA and resuspended in the same buffer at a density of 3×10^6 cells/ml. The cells were then loaded with […] FURA-2/AM for 30 mrin at 37° C., washed twice in HBSS, and resuspended at 1×10^6 cells/ml. TrP-1 cell suspension (0.9 ml) was added to a 5 ml disposable cuvette containing a magnetic stirrer bar and 2.1 ml of prewarmed (37° C.) HBSS containing 1 mg/ml BSA, 1 mM MgCl2 and 2 mM CaCl2. The cuvette was placed in a fluorescence spectrophotometer (Perkin Elner, Norwalk, Conn.) and preincubated for 4 min at 37° C. with stirring. Fluorescence was recorded over 70 sec and cells were stimulated by addition of hMCP-1 to the cuvette after 10 sec. [Ca^2+]i was measured by excitation at 340 nm and 380 nm alternately and subsequent measurement of the intensity of the fluorescence emission at 510 nm.
# where the Kd for FURA-2 Ca^2+ complex at 37° C. was taken to be 224 nm. […]
# [3] = tested on: THP-1 cells; experiment: hMCP-1 mediated chemotaxis of THP-1 cells; type: cell-based, human; settings: 2 h at 37° C.
# Protocol: In vitro chemotaxis assays were performed using the human monocytic cell line THP-1. Cell migration through polycarbonate membranes was measured by enumerating those passing through either directly by Coulter counting or indirectly by use of a colourimetric viability assay measuring the cleavage of a tetrazolium salt by the mitochondrial respiratory chain (Scudiero D. A. et al. 1988, Cancer Res., 48, 4827-4833).
# Chemoattractants were introduced into a 96-well microtitre plate which forms the lower well of a chemotaxis chamber fitted with a PVP-free 5 μm poresize polycarbonate adhesive framed filter membrane (NeuroProbe MB series, Cabin John, Md. 20818, USA) according to the manufacturer's instructions. […] The plate was incubated at 37° C. for 3 h and the absorbance of the soluble formazan product was read on a microtitre plate reader at 450 nm. The data was input into a spreadsheet, corrected for any random migration in the absence of chemoattractant and the average absorbance values, standard error of the mean, and significance tests were calculated. bMCP-1 induced concentration dependent cell migration with a characteristic biphasic response, maximal 0.5-1.0 nm.
substance,measurement,setting,value
"MCP-1: Human Monocyte Chemoattractant Protein-1, a C-C chemokine; natural ligand of the CCR2 receptor, used as assay ligand/stimulus",IC50,"[1]; cold competition with 100 pM 125I-labeled MCP-1, room temperature, read-out: IC50 of MCP-1 binding to CHO-CCR2B membrane fragments",0.11 nM
same,Kd,"[1]; equilibrium binding, room temperature, read-out: Kd of MCP-1 binding to CHO-CCR2B membrane fragments",0.12 nM
same,EC50,[2],~2 nM
same,concentration giving maximal cell migration (biphasic response),[3],0.5-1.0 nm
